Laboratory results taken from US20230405140A1, “ANTI-CD56 ANTIBODY-DRUG CONJUGATES AND THEIR USE IN THERAPY” (MCSAF INSIDE ONCOLOGY, priority 2020, published 2023).

Assays:
[1] = system: small cell lung carcinoma; conditions: phase II, in combination with chemotherapy (cisplatin-etoposide); in words; cited from earlier work
WaGa = experiment: XTT assay, ADC-mediated cytotoxicity; type: cell-based; conditions: 4 days, read-out: WaGa n = 3 IC50
Experimental: (§1) To evaluate cell viability and cellular metabolic activity, XTT assays were performed according to standard protocols. WaGa, PeTa, H69, H209, H660 cell lines were plated in 3 replicates in a 96-well plate with 5.10^4 cells/well. […] Untreated cells were used as viability reference. Cells treated with 1% Triton X100 were used as cell death positive control. After 4 days, 25 μL XTT reagent at 1 mg/mL (Alfa Aesar, thermo Fisher) with N-methyl dibenzopyrazine methyl sulfate (PMS) activator (25 μM) was added per well and absorbance was measured at 450 nm after 4 h incubation. Absorbance at 620 nm was used as a reference. Three independent experiments have been performed.

WaGa CRISPR CD56 = experiment: XTT assay, ADC-mediated cytotoxicity; type: cell-based; conditions: 4 days, CD56− cells, read-out: WaGa CRISPR CD56 n = 3 IC50
Experimental: as §1

PeTa = experiment: XTT assay, ADC-mediated cytotoxicity; type: cell-based; conditions: 4 days, read-out: PeTa n = 3 IC50
Experimental: as §1

H69 = experiment: XTT assay, ADC-mediated cytotoxicity; type: cell-based; conditions: 4 days, read-out: H69 n = 3 IC50
Experimental: as §1

H209 = experiment: XTT assay, ADC-mediated cytotoxicity; type: cell-based; conditions: 4 days, read-out: H209 n = 3 IC50
Experimental: as §1

[2] = system: CD56− cells (CRISPR-MCC cell lines WaGa and MKL-1); experiment: XTT assay, summary over CD56- CRISPR-MCC cell lines; type: cell-based; conditions: at high doses; in words
Experimental: as §1

[3] = system: solid tumors expressing CD56; conditions: several phase I studies; in words; cited from earlier work
MKL-1 CRISPR CD56 = experiment: XTT assay, ADC-mediated cytotoxicity; type: cell-based; conditions: 4 days, CD56− cells, read-out: MKL-1 CRISPR CD56 n = 3 IC50
neutrophils = experiment: Killing effect on neutrophils (Annexin V / 7-AAD flow cytometry); type: cell-based, human; conditions: after 4 h of incubation; CD56 negative cells; at high concentration
Source text: The neutrophils were isolated directly from whole blood of healthy adult volunteers at the Etablissement Français du Sang, according to institutional research protection guidelines agreement N° CA-REC-2019-188, Centre Val de Loire, France, by negative selection, using the kit (MACSxpress® Whole Blood Neutrophil Isolation Kit, MiltenyBiotech™). The neutrophils were used directly following their isolation and then resuspended in HBSS buffer (1X) (Gibco 15266355), at 1×10^6 cells/mL.
(§2) 5% of CO2. […] All products were tested after 4 days treatment on NK cells and 4 h on monocytes and neutrophils.

primary NK cells = experiment: Killing effect on primary NK cells (Annexin V / 7-AAD flow cytometry); type: cell-based, human; conditions: for Killing effect on primary NK cells (ADCC): after 4 h of incubation, in words; for Killing effect on primary NK cells: after 4 days of incubation
Experimental: (§3) Primary natural killer cells (NK) and monocytes were obtained from blood of healthy adult volunteers at the Etablissement Français du Sang, according to institutional research protection guidelines agreement N° CA-REC-2019-188, Centre Val de Loire, France. Ficoll density centrifugation step (Eurobio) was performed to isolate peripheral blood mononuclear cells (PBMC).
NK cells were isolated from PBMC by negative selection (NK cell isolation kit human, Miltenyi Biotec) with purity higher than 95%. NK cells were cultured for up to 36 h in RPMI 1640 supplemented with 10% FCS, 1% penicillin and streptomycin, 1% L-glutamine and 100 UI/mL IL-2 at 37° C., 5% CO2 at 1.10^6 cells/mL.

[4] = system: CD56− cells (CRISPR WaGa, PeTa, MKL-1); experiment: Flow cytometry binding of Alexa Fluor 750 labelled antibodies, CD56- CRISPR cell lines; conditions: 4° C., 30 minutes, in words
Experimental: (§4) Binding levels of L and mAb-003 have been evaluated on several tumor cell lines: MCC (WaGa, PeTa, MKL-1), SCLC (H69, H209) and prostate cancers (H660) as well as WaGa, PeTa and MKL-1 CD56-knocked out using CRISPR technology.
(§5) The L and mAb-003 were labelled with Alexa Fluor 750 (Alexa Fluor 750 Protein Labelling Kit, Invitrogen) to allow their detection by flow cytometry. The labelled antibodies were incubated with 1.10^5 cells at 4° C. for 30 minutes, then cells were washed twice with PBS supplemented with 1% FCS, and the binding was analysed by Flow cytometry on Cytoflex.

[5] = system: CD56+ cell lines (WaGa, PeTa, MKL-1, H69, H209, H660); experiment: Flow cytometry binding of Alexa Fluor 750 labelled antibodies, CD56+ cell lines; conditions: 4° C., 30 minutes, in words
Experimental: as §4, §5

monocytes = experiment: Killing effect on monocytes (Annexin V / 7-AAD flow cytometry); type: cell-based, human; conditions: after 4 h of incubation; in words
Experimental: as §3
Monocytes were isolated from PBMC by positive selection using anti-CD14 MicroBeads (Miltenyi Biotec) according to manufacturer recommendations. Monocytes were cultured in serum-free X-VIVO-15 medium (Lonza) at 1.10^6 cells/mL.
as §2

WaGa xenograft = experiment: Efficacy in vivo, WaGa xenograft, ADC 5 mg/kg twice a week; parameters: species or system NOD/SCID mice; conditions: 5 mg/kg IV twice a week; day 30
Experimental: Xenograft mice model: eighteen 7-week-old females NOD/SCID (Janvier Labs) mice were maintained under aseptic conditions. All animal procedures were approved by local ethics committee (Apafis #26772-2020072715262737 v2). WaGa cell line was used for tumor induction, as previously described in [9]. Mice received one subcutaneous injection of 1.10^7 WaGa cells with 10% matrigel on the back. General state and weight were monitored twice a week during the procedure. Tumor volume was measured with a caliper and tumor volume was calculated according to the formula: π/6×width×length×height. […] Mice were sacrificed 30 days after inclusion or when reaching one predefined endpoint (tumor ulceration, weight loss >20%, or prostration). Tumors, heart, lungs, spleen, and liver were removed for macroscopic examination. After dissection, tumor weight and volume were assessed. To detect metastatic spread and potential toxicity of ADCs, whole tumors and organs (heart, lungs, spleen, and liver), were formalin-fixed and paraffin embedded for microscopic evaluation to evaluate architecture changes, inflammatory infiltrate, necrosis, vascular changes, fibrosis and liver steatosis.

B1: LM: Lorvotuzumab Mertansine, anti-CD56 ADC coupled to mertansine (DM1) (conjugate, chains of the INN, looked up)
VH: QVQLVESGGGVVQPGRSLRLSCAASGFTFSSFGMHWVRQAPGKGLEWVAYISSGSFTIYYADSVKGRFTISRDNSKNTLYLQMNSLRAEDTAVYYCARMRKGYAMDYWGQGTLVTVSS
VL: DVVMTQSPLSLPVTLGQPASISCRSSQIIIHSDGNTYLEWFQQRPGQSPRRLIYKVSNRFSGVPDRFSGSGSGTDFTLKISRVEAEDVGVYYCFQGSHVPHTFGQGTKVEIK
modifications: mertansine (DM1)
- Survival benefit [1]: did not demonstrate any survival benefit
- IC50 (WaGa): 75.6 nM
- IC50 (WaGa CRISPR CD56): 75.6 nM
- IC50 (PeTa): 26.9 nM
- IC50 (H69): 62.6 nM
- IC50 (H209): 100 nM
- Cytotoxicity on CD56− cells [2]: nonspecific cytotoxicity
- Tolerance [3]: acceptable tolerance
- IC50 (MKL-1 CRISPR CD56): 74.1 nM
- Killing effect towards neutrophils (neutrophils): around 15%
- Killing effect on primary NK cells (ADCC) (primary NK cells): ADCC killing effect was observed

B2: L: Lorvotuzumab (antibody, chains of the INN, looked up, V domains shown)
VH: B1 VH
VL: B1 VL
- Binding to CD56− cells (CRISPR cells) [4]: binding to CD56− cells
- Binding to CD56+ cells [5]: lower binding level
- Killing effect towards neutrophils (neutrophils): about 15%
- Killing effect on primary NK cells (ADCC) (primary NK cells): ADCC killing effect was observed
- Killing effect on primary NK cells (primary NK cells): 40%

B3: LM-002: Deglycosylated Lorvotuzumab Mertansine: treated with PNGase F to remove the glycosylation (conjugate, chains of the INN, looked up)
VH: B1 VH
VL: B1 VL
modifications: mertansine; deglycosylated
notes: Deglycosylated Lorvotuzumab Mertansine: treated with PNGase F to remove the glycosylation
- Killing effect on monocytes (monocytes): negligible killing effect

B4: L-002: Deglycosylated Lorvotuzumab: treated with PNGase F to remove the glycosylation at Asn297 (antibody, chains of the INN, looked up, V domains shown)
VH: B1 VH
VL: B1 VL
modifications: deglycosylated with PNGase F
notes: Deglycosylated Lorvotuzumab: treated with PNGase F to remove the glycosylation at Asn297
- Killing effect on primary NK cells (primary NK cells): 20%

B5: MF-L-MMAE: L conjugated to MMAE with 6-(2,6-bis(bromomethyl)pyridin-4-yl)amido-N-hexanamide-valine-citrulline-p-aminobenzoyl carbamate (conjugate, chains of the INN, looked up)
VH: B1 VH
VL: B1 VL
modifications: MMAE via val-cit PAB linker
notes: L conjugated to MMAE with 6-(2,6-bis(bromomethyl)pyridin-4-yl)amido-N-hexanamide-valine-citrulline-p-aminobenzoyl carbamate
- Mean end tumor weight (WaGa xenograft): 0.08 g
